From patent publication US20140045756A1

Experiments:
[1] = biological target: TNFR2 immobilized on the SPR sensor chip (channel 1) (UniProt P20333); assay: SPR (FastStep kinetic assay); right panel is TNFR2; key printed as TNFR1; conditions: designed binder
[2] = biological target: TNFR1 immobilized on the SPR sensor chip (channel 3) (UniProt P19438); assay: SPR (FastStep kinetic assay)
[3] = biological target: TNFR2 immobilized on the SPR sensor chip (channel 1) (UniProt P20333); assay: SPR (FastStep kinetic assay); conditions: ligand

Sequence of Recombinant human PGRN (rhPGRN) (P28799 18-593): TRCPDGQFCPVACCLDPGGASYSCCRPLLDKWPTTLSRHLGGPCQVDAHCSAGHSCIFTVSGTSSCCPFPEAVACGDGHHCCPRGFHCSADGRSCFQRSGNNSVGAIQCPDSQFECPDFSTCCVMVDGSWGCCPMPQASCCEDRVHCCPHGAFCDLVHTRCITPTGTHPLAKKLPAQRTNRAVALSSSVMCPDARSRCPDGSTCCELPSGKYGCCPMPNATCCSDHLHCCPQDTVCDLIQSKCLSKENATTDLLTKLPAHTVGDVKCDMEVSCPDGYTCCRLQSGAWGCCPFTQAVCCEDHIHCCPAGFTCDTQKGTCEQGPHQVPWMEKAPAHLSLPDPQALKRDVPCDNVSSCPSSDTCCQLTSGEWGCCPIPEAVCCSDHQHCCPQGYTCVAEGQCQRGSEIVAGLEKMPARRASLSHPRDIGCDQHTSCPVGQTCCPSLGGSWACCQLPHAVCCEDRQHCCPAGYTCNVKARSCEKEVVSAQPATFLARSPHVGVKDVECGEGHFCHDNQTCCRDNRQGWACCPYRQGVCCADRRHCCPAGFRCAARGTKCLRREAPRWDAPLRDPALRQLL
Sequence of TNFR1 immobilized on the SPR sensor chip (channel 3) (P19438 30-211): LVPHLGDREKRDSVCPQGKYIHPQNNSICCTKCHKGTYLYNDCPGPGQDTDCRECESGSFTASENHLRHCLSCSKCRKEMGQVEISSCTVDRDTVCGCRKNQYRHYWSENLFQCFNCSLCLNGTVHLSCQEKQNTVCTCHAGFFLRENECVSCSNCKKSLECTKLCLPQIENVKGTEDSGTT

| Substance | Kd [1] [nM] | Kd ([2]; designed binder) [nM] | Kd ([2]; ligand) [nM] | Kd [3] [nM] |
| --- | --- | --- | --- | --- |
| Atsttrin-α1 (Antagonist of TNF/TNFR Signaling via Targeting to TNF Receptors-α1), recombinant | 90.2 | 142 |  |  |
| Recombinant human PGRN (rhPGRN) (from UniProt P28799 18-593) |  |  | 1.77 | 1.52 |
